For assay [1], the target named is T1, LAMP1::histag (human, UniProt P11279 29-382).
T1 construct: extracellular domain without signal peptide, C-terminal 6 His tag, made in HEK293 cells; also called recombinant human LAMP1; human LAMP1 (29-382)
T1 sequence: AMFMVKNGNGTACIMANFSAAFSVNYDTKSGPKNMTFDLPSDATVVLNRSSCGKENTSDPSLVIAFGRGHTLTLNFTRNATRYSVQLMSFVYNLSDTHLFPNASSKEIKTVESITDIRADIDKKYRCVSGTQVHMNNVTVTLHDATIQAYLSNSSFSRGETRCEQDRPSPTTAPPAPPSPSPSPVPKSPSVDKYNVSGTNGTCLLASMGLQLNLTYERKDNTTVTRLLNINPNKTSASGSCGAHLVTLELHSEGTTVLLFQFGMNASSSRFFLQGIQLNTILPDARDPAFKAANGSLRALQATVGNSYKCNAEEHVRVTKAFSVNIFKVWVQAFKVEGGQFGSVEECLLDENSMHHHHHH
The experiment in a line: ELISA with LAMP1. (In general: An ELISA detects its analyte on a solid surface through an enzyme-linked reagent.)

Assay [2] concerns the target T1, LAMP1::histag. The experiment in a line: ELISA on secreted LAMP1.
The target in a further assay is T2, mLAMP1::histag (mouse, UniProt P11438 25-369).
T2 construct: also called mouse LAMP1 (25-369); Mouse LAMP1
T2 sequence: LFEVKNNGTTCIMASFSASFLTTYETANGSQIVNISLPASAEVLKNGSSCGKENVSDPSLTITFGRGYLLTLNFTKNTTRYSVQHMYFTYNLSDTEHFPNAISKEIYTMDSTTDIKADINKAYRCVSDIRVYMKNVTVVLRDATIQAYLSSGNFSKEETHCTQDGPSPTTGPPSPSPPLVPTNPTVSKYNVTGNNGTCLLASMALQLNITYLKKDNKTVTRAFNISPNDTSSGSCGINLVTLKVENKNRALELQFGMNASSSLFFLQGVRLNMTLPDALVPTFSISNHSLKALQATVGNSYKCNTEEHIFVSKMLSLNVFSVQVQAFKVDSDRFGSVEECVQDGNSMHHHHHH
The experiment in a line: ELISA.

In assay [3] the target is T3, LAMP1_L123_mLAMP1_L4::histag (human/mouse hybrid, UniProt P11279 29-375).
T3 construct: human LAMP1 (29-309) and mouse LAMP1 (299-369), His tag; also called Loop1-3: hLAMP1 Loop4: mLAMP1
T3 chain: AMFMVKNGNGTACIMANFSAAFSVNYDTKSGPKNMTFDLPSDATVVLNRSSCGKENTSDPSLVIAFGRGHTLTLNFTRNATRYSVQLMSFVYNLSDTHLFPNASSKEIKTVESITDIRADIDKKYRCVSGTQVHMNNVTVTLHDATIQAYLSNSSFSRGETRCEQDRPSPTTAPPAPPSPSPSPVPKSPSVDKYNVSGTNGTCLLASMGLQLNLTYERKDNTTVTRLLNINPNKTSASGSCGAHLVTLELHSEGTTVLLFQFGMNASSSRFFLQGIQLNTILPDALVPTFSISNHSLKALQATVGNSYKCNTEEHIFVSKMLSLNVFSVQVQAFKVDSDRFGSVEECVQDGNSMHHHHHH
Put plainly: ELISA.

The target of assay [4] is T4, LAMP1_L12_mLAMP1_L34::histag (human/mouse hybrid).
T4 construct: human LAMP1 (29-195) and mouse LAMP1 (190-369), His tag; also called Loop1-2: hLAMP1 Loop3-4: mLAMP1
T4 chain: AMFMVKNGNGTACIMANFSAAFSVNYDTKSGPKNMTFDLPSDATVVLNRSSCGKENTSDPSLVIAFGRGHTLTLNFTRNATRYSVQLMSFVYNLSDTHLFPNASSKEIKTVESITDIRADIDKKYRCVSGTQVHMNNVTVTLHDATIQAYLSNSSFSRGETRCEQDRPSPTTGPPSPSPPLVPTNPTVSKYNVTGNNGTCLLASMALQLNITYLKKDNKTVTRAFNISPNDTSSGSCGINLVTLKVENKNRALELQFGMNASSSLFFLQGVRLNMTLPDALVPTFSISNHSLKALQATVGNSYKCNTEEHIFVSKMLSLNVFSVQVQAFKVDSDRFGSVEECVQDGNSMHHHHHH
Put plainly: ELISA.

The next assay addresses T5, mLAMP1_ΔGYQTI (mouse, UniProt P11438 25-369).
T5 construct: on cells; also called pXL6009; murine LAMP1; not shown: murine transmembrane domain and cytoplasmic tail with GYQTI replaced by 5 Ala
T5 sequence: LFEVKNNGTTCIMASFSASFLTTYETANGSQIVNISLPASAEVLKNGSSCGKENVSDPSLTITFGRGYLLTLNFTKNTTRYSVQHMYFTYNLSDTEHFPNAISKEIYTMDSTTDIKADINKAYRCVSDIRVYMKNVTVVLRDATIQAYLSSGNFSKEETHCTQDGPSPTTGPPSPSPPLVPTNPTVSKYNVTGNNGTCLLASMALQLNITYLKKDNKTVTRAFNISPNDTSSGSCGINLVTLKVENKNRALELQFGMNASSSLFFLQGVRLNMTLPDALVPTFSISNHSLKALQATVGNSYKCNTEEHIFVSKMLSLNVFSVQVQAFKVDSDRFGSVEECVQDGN
Put plainly: flow cytometry, transfected 293-F cells, experiment 1. In general terms: A flow cytometer gives signals particle by particle.

For another assay, the target named is T6, mLAMP1_hseq11_ΔGYQTI (mouse; human, UniProt P11438 25-369).
T6 construct: on cells; numbering read as for pXL6041; also called pXL6048; not shown: murine transmembrane domain and cytoplasmic tail with GYQTI replaced by 5 Ala
T6 chain: T5 sequence with S151N, G152S, N153S, K156R, E157G
Described as above.

As usually defined, the EC50 is the midpoint of the concentration-response curve.

Residue numbers refer to the chain shown, from its start.

B1: MAb2 (antibody, mouse IgG1, kappa)
heavy: QVQLQQSAAELARPGASVKMSCKASGYTFTSYTMHWVKQRPGQGLEWIGYFNPSSGYPEYNQKFKDKTTLTADKSSNTAFIQLNSLTSEDSAVYYCSRGYYYGSRGYALDFWGQGASVTVSSAKTTPPSVYPLAPGSAAQTNSMVTLGCLVKGYFPEPVTVTWNSGSLSSGVHTFPAVLQSDLYTLSSSVTVPSSTWPSETVTCNVAHPASSTKVDKKIVPRDCGCKPCICTVPEVSSVFIFPPKPKDVLTITLTPKVTCVVVDISKDDPEVQFSWFVDDVEVHTAQTQPREEQFNSTFRSVSELPIMHQDWLNGKEFKCRVNSAAFPAPIEKTISKTKGRPKAPQVYTIPPPKEQMAKDKVSLTCMITDFFPEDITVEWQWNGQPAENYKNTQPIMDTDGSYFVYSKLNVQKSNWEAGNTFTCSVLHEGLHNHHTEKSLSHSPGK
light: NIVLTQSPVSLAVSLGQRATISCRASESVDINGNTFMHWYQQKPGQSPKLVIYAASNIESGVPARFSGSGSSTDFTFTIDPVEADDVATYYCQQNIEDPWTFGGGTKVEIKRADAAPTVSIFPPSSEQLTSGGASVVCFLNNFYPKDINVKWKIDGSERQNGVLNSWTDQDSKDSTYSMSSTLTLTKDEYERHNSYTCEATHKTSTSPIVKSFNRNEC
notes: murine monoclonal IgG, kappa, from hybridoma; also called murine MAb2
B1: the EC50 in the assay with LAMP1::histag [1] was 0.25 nM; in the assay with LAMP1::histag [2], around 0.3 nM; in assay [3], 0.25 nM; in assay [4], 0.25 nM. Also, the binding result with mLAMP1::histag, with mLAMP1_ΔGYQTI and with mLAMP1_hseq11_ΔGYQTI was “no binding” each time. Also, the mean fluorescence with mLAMP1_ΔGYQTI turned out to be 21; with mLAMP1_hseq11_ΔGYQTI, 28.

B2: MAb1 (antibody, mouse IgG2a, kappa)
heavy: QVQLQQSGAELVKPGASVKMSCKASGYIFTNYNIHWVKKSPGQGLEWIGAIYPGNGDAPYSQKFKDKATLTADKSSSTTYMQLSRLTSEDSAVYYCVRANWDVAFAYWGQGTLVSVSAAKTTAPSVYPLAPVCGDTTGSSVTLGCLVKGYFPEPVTLTWNSGSLSSGVHTFPAVLQSDLYTLSSSVTVTSSTWPSQSITCNVAHPASSTKVDKKIEPRGPTIKPCPPCKCPAPNLLGGPSVFIFPPKIKDVLMISLSPIVTCVVVDVSEDDPDVQISWFVNNVEVHTAQTQTHREDYNSTLRVVSALPIQHQDWMSGKEFKCKVNNKDLPAPIERTISKPKGSVRAPQVYVLPPPEEEMTKKQVTLTCMVTDFMPEDIYVEWTNNGKTELNYKNTEPVLDSDGSYFMYSKLRVEKKNWVERNSYSCSVVHEGLHNHHTTKSFSRTPGK
light: DIQMTQSPPSLSASLGGKVTITCKASQDIDRYMAWYQDKPGKGPRLLIHDTSTLQPGIPSRFSGSGSGRDYSFSISNLEPEDIATYYCLQYDNLWTFGGGTKLEIKRADAAPTVSIFPPSSEQLTSGGASVVCFLNNFYPKDINVKWKIDGSERQNGVLNSWTDQDSKDSTYSMSSTLTLTKDEYERHNSYTCEATHKTSTSPIVKSFNRNEC
notes: murine monoclonal IgG, kappa, from hybridoma; also called murine MAb1
As to B2, the EC50 is 0.18 nM in the assay with LAMP1::histag [1], around 0.2 nM with LAMP1::histag [2], 0.16 nM in assay [3] and 0.18 nM in assay [4]. Besides, the binding result with mLAMP1::histag, with mLAMP1_ΔGYQTI and with mLAMP1_hseq11_ΔGYQTI was “no binding” throughout. The mean fluorescence in the assay with mLAMP1_ΔGYQTI is 4; in the assay with mLAMP1_hseq11_ΔGYQTI, 6.
